Laboratory results from article PMC10873206 (Nature Structural & Molecular Biology, 2024).

Columns and labels:
[1] = molecular target: T1, His-ubiquitin(1–75)–BmDPA (human, UniProt P0CG48 1-75, C terminus (residue 75) conjugated to (E)-3-[2-(bromomethyl)-1,3-dioxolan-2-yl]prop-2-en-1-amine (BmDPA), cross-linked to Cys48 of the acceptor ubiquitin and to the UBE2R2 active site cysteine); assay: cryo-EM structure; trapped chain formation complex: neddylated CUL2–RBX1, Elongin B/C–VHL, PROTAC MZ1, K48C ubiquitin–BRD4 (352–460), donor ubiquitin(1–75), UBE2R2; SEC-purified; 7.5 Å map, rigid-body fits; conditions: both partners purified
T1 construct: ubiquitin, human, residues 1–75; also called UBD; donor ubiquitin

neddylated CUL1–RBX1 = molecular target: T2, neddylated CUL1–RBX1 (human, UniProt Q13616 1-776; P62877 5-108; Q15843 1-76, NEDD8 covalently linked to a conserved cullin lysine (WHB domain) | C terminus covalently linked to the cullin lysine); assay: cryo-EM structure; trapped chain formation complex: neddylated CUL1–RBX1, SKP1–FBXW7, K48C ubiquitin–cyclin E phosphopeptide, donor ubiquitin(1–75), UBE2R2; SEC-purified; 8.1 Å map, rigid-body fits; conditions: both partners purified
T2 construct: CUL1, human, wild type; RBX1, human, residues 5 to C terminus; NEDD8, human; purified as previously described; also called NEDD8–CUL1–RBX1; neddylated CRL1 core; source: High Five insect cells (baculovirus), co-expressed, purified (GST-sepharose, TEV cleavage, ion exchange, SEC); neddylated as previously described; not shown: GST, N-terminal, cleaved; copies: + +
T2 sequence (Q13616 whole entry, chain 1 of 3, the tested form may be a part): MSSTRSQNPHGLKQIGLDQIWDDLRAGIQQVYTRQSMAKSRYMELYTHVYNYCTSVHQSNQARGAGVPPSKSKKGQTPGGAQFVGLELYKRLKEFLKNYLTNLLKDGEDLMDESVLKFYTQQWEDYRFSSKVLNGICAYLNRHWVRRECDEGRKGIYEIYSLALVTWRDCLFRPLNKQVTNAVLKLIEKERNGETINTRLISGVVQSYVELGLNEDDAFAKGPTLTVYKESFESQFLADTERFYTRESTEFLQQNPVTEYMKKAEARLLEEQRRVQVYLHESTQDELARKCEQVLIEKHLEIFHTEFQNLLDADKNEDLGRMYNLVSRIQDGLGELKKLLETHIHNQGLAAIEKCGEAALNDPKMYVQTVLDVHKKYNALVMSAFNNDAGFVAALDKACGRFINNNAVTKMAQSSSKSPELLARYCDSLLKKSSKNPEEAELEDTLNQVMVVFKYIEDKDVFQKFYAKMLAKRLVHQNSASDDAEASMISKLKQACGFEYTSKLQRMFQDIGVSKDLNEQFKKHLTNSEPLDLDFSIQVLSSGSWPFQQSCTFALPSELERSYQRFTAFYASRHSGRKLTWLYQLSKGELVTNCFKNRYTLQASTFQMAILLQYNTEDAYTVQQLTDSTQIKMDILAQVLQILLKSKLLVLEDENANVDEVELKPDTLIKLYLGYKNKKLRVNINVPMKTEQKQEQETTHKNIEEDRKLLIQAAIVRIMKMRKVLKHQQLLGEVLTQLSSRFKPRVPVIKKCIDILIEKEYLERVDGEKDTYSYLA
T2 sequence (P62877 5-108, chain 2 of 3): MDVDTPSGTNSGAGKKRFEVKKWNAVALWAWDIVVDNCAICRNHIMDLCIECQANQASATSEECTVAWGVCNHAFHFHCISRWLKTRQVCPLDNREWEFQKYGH
T2 sequence (Q15843 1-76, chain 3 of 3): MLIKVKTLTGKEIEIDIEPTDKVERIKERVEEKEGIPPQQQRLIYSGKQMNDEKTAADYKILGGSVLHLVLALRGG

B1: UBE2R2 (enzyme, human, UniProt Q712K3 1-238, looked up)
chain: MAQQQMTSSQKALMLELKSLQEEPVEGFRITLVDESDLYNWEVAIFGPPNTLYEGGYFKAHIKFPIDYPYSPPTFRFLTKMWHPNIYENGDVCISILHPPVDDPQSGELPSERWNPTQNVRTILLSVISLLNEPNTFSPANVDASVMFRKWRDSKGKDKEYAEIIRKQVSATKAEAEKDGVKVPTTLAEYCIKTKVPSNDNSSDLLYDDLYDDDIDDEDEEEEDADCYDDDDSGNEES
notes: UBE2R2, human, wild type; In the trapped cryo-EM complexes the active site Cys93 is cross-linked to the BmDPA ligation mimic; in the di-ubiquitin synthesis assays it is thioesterified to 32P-labelled donor ubiquitin; also called WT (R2); UBE2R2 FL; source: E. coli Rosetta (DE3), purified (nickel-agarose or GST-sepharose, TEV, SEC); not shown: GST or 6xHis (either), N-terminal, cleaved
B1: binds [1]; binds (neddylated CUL1–RBX1).
